How the values were obtained:
human FXIa factor [1] = target: T1, human FXIa factor (human, UniProt P03951 19-625); assay: cell-based or functional assay
human FXIa factor [2] = target: T1, human FXIa factor; assay: cell-based or functional assay; remark: listed apart in the source
human FXIa factor [3] = target: T1, human FXIa factor; assay: cell-based or functional assay; remark: listed apart in the source
human FXIa factor [4] = target: T1, human FXIa factor; assay: Biacore 8K (SPR), human FXIa in 2-fold dilution series
human FXIa factor [5] = target: T1, human FXIa factor; assay: cell-based or functional assay; remark: listed apart in the source

IC50 (nM) from S2366 Assay (human FXIa factor [3]) [nM]	FXIa kit Activity Assay (nM), IC50 (human FXIa factor [5]) [nM]	Binder	further results
54.1	8.53	humanized antibody 14F3-Z1 (antibody, human IgG1, kappa, V domains shown) VH: QVQLVQSGAEVKKPGASVKVSCKASGYAFSNYLIEWVGQAPGQGLEWMGVINPGSGYTNYNENFKDRVTMTAHTSISTAYMELSRLRSDDTAVYFCARTYGKYGGAMDFWGQGTLVTVSS VL: DIQMTQSPSSLSASVGDRVTITCKASQSVSNDVAWYQQKPGKAPKLLIYYISNRYTGVPSRFSGSGSGTDFTFTISSLQPEDIATYFCQQDYSSPPTFGQGTKLEIKR	–
64.7	15.7	humanized antibody 14F3-4 (antibody, human IgG1, kappa, V domains shown) VH: QVQLVQSGAEVKKPGASVKVSCKASGYTFTNYLIEWVRQAPGQGLEWIGVINPGSGYTNYNENFKDRATLTADTSISTAYMELSRLRSDDTAVYFCARTYGKYGGAMDFWGQGTTVTVSS VL: DIVMTQSPDSLAVSLGERATINCKASQSVSNDVAWYQQKPGQPPKLLIYYISNRYTGVPDRFSGSGSGTDFTLTISSLQAEDVAVYFCQQDYSSPPTFGGGTKLEIKR	–
57.3	8.79	humanized antibody 14F3-Z2 (antibody, human IgG1, kappa, V domains shown) VH: QVQLVQSGAEVKKPGASVKVSCKASGYAFSNYLIEWVGQAPGQGLEWMGVINPGSGYTNYNENFKDRVTMTRHTSISTAYMELSRLRSDDTAVYFCARTYGKYGGAMDFWGQGTLVTVSS VL: DIQMTQSPSSLSASVGDRVTITCKASQSVSNDVAWYQQKPGKAPKLLIYYISNRYTGVPSRFSGSGSGTDFTFTISSLQPEDIATYYCQQDYSSPPTFGQGTKLEIKR	–
56.3	13.5	humanized antibody 14F3-Z3 (antibody, human IgG1, kappa, V domains shown) VH: QVQLVQSGAEVKKPGSSVKVSCKASGYAFSNYLIEWVRQAPGQGLEWMGVINPGSGYTNYNENFKDRVTITADESTSTAYMELSSLRSEDTAVYYCARTYGKYGGAMDFWGQGTTVTVSS VL: DIQMTQSPSFLSASVGDRVTITCKASQSVSNDVAWYQQKPGKAPKLLIYYISNRYTGVPSRFSGSGSGTDFTLTISSLQPEDFATYYCQQDYSSPPTFGQGTKLEIKR	–
55.8	13.6	humanized antibody 14F3-Z4 (antibody, human IgG1, kappa, V domains shown) VH: QVQLVQSGAEVKKPGSSVKVSCKASGYAFSNYLIEWVRQAPGQGLEWMGVINPGSGYTNYNENFKDRVTITADESTSTAYMELSSLRSEDTAVYFCARTYGKYGGAMDFWGQGTTVTVSS VL: DIQMTQSPSFLSASVGDRVTITCKASQSVSNDVAWYQQKPGKAPKLLIYYISNRYTGVPSRFSGSGSGTDFTLTISSLQPEDFATYFCQQDYSSPPTFGQGTKLEIKR	–

The remaining lines, values behind:

Binder	IC50 (nM) from S2366 Assay (human FXIa factor [3]) [nM]	FXIa kit Activity Assay (nM), IC50 (human FXIa factor [5]) [nM]	further results
chimeric antibody 14F3 (antibody, V domains shown) VH: QVQLQQSGAELVRPGTSVTVSCKASGYAFSNYLIEWVNQRPGQGLEWIGVINPGSGYTNYNENFKDKATLTADTSSSTAYMQLSSLTSDDSAVYFCARTYGKYGGAMDFWGQGTSVTVSS VL: DIVMTQTPKFLLVSAGDRVTITCKASQSVSNDVAWYQQKPGQSPKLLIYYISNRYTGVPDRFTGSGYGTDFTFTINTVQAEDLAVYFCQQDYSSPPTFGGGTKLEIK	–	–	IC50(nM) from S2366 assay (First Batch) (human FXIa factor [1]): 78.7 nM; FXIa Kit Activity Assay (nM), IC50 (First Batch) (human FXIa factor [2]): 7.77 nM
chimeric antibody 17E3C10 (antibody, V domains shown) VH: QVKLQESGPELRKPGETVYISCKASGYTFTNYGVNWVKQAPGKGLKWMGWINTYTGEPIYADDFKGRFAFSLETSANTAYLQISNLTNEDTATYFCARLYLYGNTYDYYAMDYWGQGTSVTVSS VL: DIVLTQTPSSMYASLGERVTITCKASQDISTYLSWFQQKPGKSPKTLIYRANRLIDGVPSRFSGSGSGQDFSLTISSLEYEDMGVYYCLQYDDLNTFGGGTKLEIK	–	–	IC50(nM) from S2366 assay (Second Batch) (human FXIa factor [1]): 44.4 nM; FXIa Kit Activity Assay (nM), IC50 (Second Batch) (human FXIa factor [2]): 0.781 nM
Osocimab (antibody, V domains shown) VH: EVQLLESGGGLVQPGGSLRLSCAASGFTFSQYGMDWVRQAPGKGLEWVSGIGPSGGSTVYADSVKGRFTISRDNSKNTLYLQMNSLRAEDTAVYYCTRGGPYYYYGMDVWGQGTTVTVSS VL: DIQMTQSPSSLSASVGDRVTITCQASQDISNYLNWYQQKPGKAPKLLIYDASNLETGVPSRFSGSGSGTDFTFTISSLQPEDIATYYCQQADSFPVTFGGGTKVEIK	226	32.5	Kd (human FXIa factor [4]): 6.37 nM; koff (human FXIa factor [4]): 0.00411 s⁻¹; kon (human FXIa factor [4]): 645000 M⁻¹ s⁻¹
chimeric antibody 3B3 (antibody, V domains shown) VH: EVQLEESGADLVRPGTSVKVSCKASGYAFTNYLIDWLKQRPGQGLEWIGVINPGSGITNYNEKFKGKATLTTDTSSSTAYMQLTNLTSDDSAVYFCARGDGTYYEDFLDYWGQGTSVTVSS VL: DIVLTQTTSSIYTSLGERVTITCKASQDINSYLSWFQQRPGRSPKTLIYRANRLMDGVPSRFSGSGSGRDFSLTISSLDYEDMGIYYCLQYDEFPLTFGAGTKLELK	–	–	IC50(nM) from S2366 assay (Fourth Batch) (human FXIa factor [1]): 42.4 nM
chimeric antibody 17E10 (antibody, V domains shown) VH: EVQLEESGPGLVKPSQSLSLTCSVTGYSITSGFYWNWIRQFPGNKLEWMGYISFDGRHNYNPSLKNRFSITRDTSKNQFFLKLTSVTAEDTATYYCARDLITTVYYYPMDYWGQGTSVTVSS VL: DIVMTQSHKFMSTSVGDRVSITCKASQDVGTAVDWYQQKTGQSPKLLIYWASTRHTGVPDRFTGSGSGTDFTLTISNVQSEDLADYFCQQYSNYPLTFGAGTKLELK	–	–	FXIa Kit Activity Assay (nM), IC50 (First Batch) (human FXIa factor [2]): 11.6 nM
chimeric antibody 29E10C4 (antibody, V domains shown) VH: QVKLEESGAELVRPGTSVKVSCKASGYAFTDYFIEWIKQRPGQGLEWIGVINPGNDVTNYNEKFKGKATLTVDKSSTTAYMQLSSLTSDDSAVYFCTRSAGNYENSMDFWGQGTSVTVSS VL: DIVLTQSPKFLLVSAGDRVTITCKASQSVSNDVGWYQQKPGQSPKLLIYYTSNRYTGVPDRFTGSGYGTDFTFTISSVQAEDLAVYFCQQDYHFPLTFGAGTKLELK	–	–	IC50(nM) from S2366 assay (Second Batch) (human FXIa factor [1]): 34.9 nM; FXIa Kit Activity Assay (nM), IC50 (Second Batch) (human FXIa factor [2]): 0.219 nM
humanized antibody 14F3-2 (antibody, human IgG1, kappa, V domains shown) VH: QVQLVQSGAEVKKPGASVKVSCKASGYTFTNYLIEWVRQAPGQGLEWMGVINPGSGYTNYNENFKDRVTMTRDTSISTAYMELSRLRSDDTAVYYCARTYGKYGGAMDFWGQGTTVTVSS VL: DIVMTQSPDSLAVSLGERATINCKASQSVSNDVAWYQQKPGQPPKLLIYYISNRYTGVPDRFSGSGSGTDFTLTISSLQAEDVAVYFCQQDYSSPPTFGGGTKLEIKR	43	9.69	–
humanized antibody 14F3-1 (antibody, human IgG1, kappa, V domains shown, To be verified) VH: QVQLVQSGAEVKKPGASVKVSCKASGYTFTNYLIEWVRQAPGQGLEWMGVINPGSGYTNYNENFKDRVTMTRDTSISTAYMELSRLRSDDTAVYYCARTYGKYGGAMDFWGQGTTVTVSS VL: DIVMTQSPDSLAVSLGERATINCKASQSVSNDVAWYQQKPGQPPKLLIYYISNRYTGVPDRFSGSGSGTDFTLTISSLQAEDVAVYYCQQDYSSPPTFGGGTKLEIKR	45.4	7.5	Kd (human FXIa factor [4]): 0.000809 nM; koff (human FXIa factor [4]): 1.05e-05 s⁻¹; kon (human FXIa factor [4]): 1.3e+07 M⁻¹ s⁻¹
humanized antibody 14F3-3 (antibody, human IgG1, kappa, V domains shown) VH: QVQLVQSGAEVKKPGASVKVSCKASGYTFTNYLIEWVRQAPGQGLEWIGVINPGSGYTNYNENFKDRATLTADTSISTAYMELSRLRSDDTAVYFCARTYGKYGGAMDFWGQGTTVTVSS VL: DIVMTQSPDSLAVSLGERATINCKASQSVSNDVAWYQQKPGQPPKLLIYYISNRYTGVPDRFSGSGSGTDFTLTISSLQAEDVAVYYCQQDYSSPPTFGGGTKLEIKR	52.7	10.7	–

Reference: patent EP4644426A1 (Gan & Lee Pharmaceuticals Co., Ltd., dated 2025)
